This assay deals with T1, myosin Va (rat (endogenous in hippocampus), UniProt Q9QYF3 1-1828).
T1 construct: myosin Va, rat, endogenous in hippocampus; also called MyoVa; source: endogenous, rat hippocampal homogenate
In words: co-IP; total rat hippocampal lysates with primary antibody and Protein A/G agarose, 4°C; buffer pH 7.4, 0.05 mol/L HEPES, 0.15 mol/L NaCl, 0.5% NP-40, 1% Triton X-100; non-immune IgG as control; slices untreated or treated with PMA (0.5 umol/L, 10 min) and/or AIP (1 umol/L). As to conditions: partners not purified.

T1 sequence (Q9QYF3 whole entry): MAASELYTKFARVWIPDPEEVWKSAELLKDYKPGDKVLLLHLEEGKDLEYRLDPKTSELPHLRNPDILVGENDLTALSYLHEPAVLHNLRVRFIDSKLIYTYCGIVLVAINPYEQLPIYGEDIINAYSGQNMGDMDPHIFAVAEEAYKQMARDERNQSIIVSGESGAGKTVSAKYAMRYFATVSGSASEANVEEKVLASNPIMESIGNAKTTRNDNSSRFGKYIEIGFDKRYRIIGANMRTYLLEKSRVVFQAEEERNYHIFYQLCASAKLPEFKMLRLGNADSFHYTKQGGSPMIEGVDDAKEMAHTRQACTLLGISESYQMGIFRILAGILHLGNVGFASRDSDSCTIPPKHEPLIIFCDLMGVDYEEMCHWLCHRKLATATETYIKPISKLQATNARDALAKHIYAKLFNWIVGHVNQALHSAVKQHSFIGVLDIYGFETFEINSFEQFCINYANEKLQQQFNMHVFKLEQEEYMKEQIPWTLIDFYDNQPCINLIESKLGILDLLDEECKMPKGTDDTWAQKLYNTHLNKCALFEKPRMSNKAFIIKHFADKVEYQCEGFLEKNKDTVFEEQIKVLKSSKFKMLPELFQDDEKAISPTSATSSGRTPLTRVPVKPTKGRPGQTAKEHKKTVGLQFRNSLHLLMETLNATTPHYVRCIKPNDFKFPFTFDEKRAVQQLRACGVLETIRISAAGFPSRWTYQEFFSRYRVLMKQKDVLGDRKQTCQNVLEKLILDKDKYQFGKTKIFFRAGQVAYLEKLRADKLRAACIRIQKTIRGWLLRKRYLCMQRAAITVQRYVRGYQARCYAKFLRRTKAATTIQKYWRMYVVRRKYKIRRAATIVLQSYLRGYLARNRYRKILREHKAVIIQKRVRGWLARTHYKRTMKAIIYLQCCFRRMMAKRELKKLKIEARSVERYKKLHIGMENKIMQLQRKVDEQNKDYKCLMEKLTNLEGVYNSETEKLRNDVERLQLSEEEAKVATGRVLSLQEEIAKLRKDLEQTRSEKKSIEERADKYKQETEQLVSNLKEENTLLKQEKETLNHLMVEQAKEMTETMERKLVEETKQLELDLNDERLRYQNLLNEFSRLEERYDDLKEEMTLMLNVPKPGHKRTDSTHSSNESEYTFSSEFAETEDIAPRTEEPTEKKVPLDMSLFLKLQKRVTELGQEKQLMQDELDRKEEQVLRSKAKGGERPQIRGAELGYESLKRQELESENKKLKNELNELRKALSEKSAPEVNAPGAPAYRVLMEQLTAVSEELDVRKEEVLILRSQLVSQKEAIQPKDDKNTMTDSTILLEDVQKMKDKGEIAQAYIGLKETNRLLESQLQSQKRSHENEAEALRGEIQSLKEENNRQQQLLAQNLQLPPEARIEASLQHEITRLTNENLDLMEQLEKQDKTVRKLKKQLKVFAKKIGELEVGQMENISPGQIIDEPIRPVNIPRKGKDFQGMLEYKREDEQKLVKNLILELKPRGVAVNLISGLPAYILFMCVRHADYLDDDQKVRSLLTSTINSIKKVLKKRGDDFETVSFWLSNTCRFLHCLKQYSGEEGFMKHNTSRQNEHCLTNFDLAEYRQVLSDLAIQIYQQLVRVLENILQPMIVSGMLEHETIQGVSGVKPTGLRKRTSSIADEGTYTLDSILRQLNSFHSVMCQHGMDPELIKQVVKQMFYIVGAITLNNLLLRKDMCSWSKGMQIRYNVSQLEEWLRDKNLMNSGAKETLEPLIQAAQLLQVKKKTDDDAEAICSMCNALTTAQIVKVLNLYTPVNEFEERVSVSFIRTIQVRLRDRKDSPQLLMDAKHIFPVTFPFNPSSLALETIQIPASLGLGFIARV

B1: NMDA receptor subunit GluN2A (receptor)
chain: not shown
notes: NMDA receptor subunit GluN2A, rat, endogenous in hippocampus; source: endogenous, rat hippocampal homogenate (slices or cultured hippocampal neurons)
With B1, the “co-IP signal with PMA, normalised to control (IP with anti-MyoVa)” value is 1.59 fold of control.

The record behind these values is publication PMC11306496, “Myosin Va-dependent Transport of NMDA Receptors in Hippocampal Neurons” (Neuroscience Bulletin, 2024).
